Data set [1] has as its system O=C(O)[C@H]1O[C@H](OP(=O)(O)OP(=O)(O)OC[C@H]2O[C@@H](n3ccc(=O)[nH]c3=O)[C@H](O)[C@@H]2O)[C@H](O)[C@@H](O)[C@@H]1O. The data set is described as follows: purified protein. The conditions noted are these: NAD+ as co-substrate, pH 8.5, 25°C, without WlbC.
Data set [2] has the same test system. The data set is described as follows: purified protein. The data set is classed as biochemical, Chromobacterium violaceum. The conditions noted are these: NAD+ as co-substrate, pH 8.5 (50 mM HEPPS), 25°C, without WlbC.
Data set [3] has as its target WlbA from Chromobacterium violaceum (Chromobacterium violaceum). The data set is described as follows: crystal structure.
The target is the same in data set [4]. The data set is described as follows: AUC.

A word on the Km: it is the substrate concentration at which the rate is half of its maximum. In general, kcat refers to the maximal rate divided by the concentration of active sites. For orientation: kcat/Km means the turnover number divided by the Michaelis constant. Turning to “B. pertussis WlbA (Bordetella pertussis Tohama I)”, in data set [1], the Km was 2050 ± 210 µM, the kcat is 0.0021 ± 0.0001 s⁻¹ and the kcat/Km was determined as 1 M⁻¹ s⁻¹.
For the substance “C. violaceum WlbA (Chromobacterium violaceum ATCC 12472)”, in data set [2], the Km came out at 200 ± 20 µM, the kcat was found to be 0.00015 ± 0.00001 s⁻¹ and the kcat/Km came out at 0.75 M⁻¹ s⁻¹.
By stoichiometry N is commonly meant a count of units in the complex or per binding partner. For “WlbA from Chromobacterium violaceum (enzyme)”, the stoichiometry N in data set [3] and in data set [4] was 8 throughout.
